# Assay results as given in paper PMC5006590.
# Assay: pseudovirus neutralisation, TZM-bl
# Details: glycan lost; control: wild type
row,Substance,"other: neutralisation sensitivity, other: ID50 (reciprocal plasma dilution)"
1,HIV-1 25711-2.4 Env: N160A,"no change, 1484.35 vs 1822.04"
2,HIV-1 25711-2.4 Env: N301A,"decreases, 749.81 vs 1822.04"
3,HIV-1 25711-2.4 Env: N332A,"decreases, 357.36 vs 1822.04"
4,HIV-1 CAP239.G3 Env: N160A,"increases, 4184.00 vs 1096.00, Fold decrease in ID50 0.26"
5,HIV-1 CAP239.G3 Env: N332A,"decreases, 204.60 vs 1096.00"
